Test results taken from patent US20250269025A1 (AVENCELL THERAPEUTICS, published 2025).
No end group written: not given here.

Columns and labels:
[1] = target: T1, CD123 on CD123 positive AML cells (Oci-AML3, Molm-13, MV4-11, primary AML cells) (human, UniProt P26951 19-378); assay: cellular binding assay per table caption, Molm-13 cells
T1 construct: whole, on cells; Endogenous CD123 on human AML cell lines; also called target antigen CD123

[2] = target: T1, CD123 on CD123 positive AML cells …; assay: cellular binding assay per table caption, Oci-AML3 cells
[3] = target: T2, La epitope 5B9 (SEQ ID No. 28) fused to human Fc domain (human, also: fused to human Fc domain, order, isotype, linker not given here); assay: SPR, Biacore X100, La epitope 5B9-human Fc on CM5 chip; KD 5B9 (second number of the cell)
T2 construct: Coupled to a CM5 sensor chip; not shown: human Fc domain
T2 chain: KPLPEVTDEY
Experimental: Furthermore, binding of different variants of the targeting module according to the invention was analyzed using the La epitope 5B9 (SEQ ID No. 28) fused to human Fc domain which was coupled to a CM5 sensor chip on a Biacore X100 device (FIG. 3). The targeting modules were purified monomers. The targeting modules were concentrated between 2.47 to 200 nM and measured in technical duplicates. For data fitting and KD calculation a two-state-reaction binding model was applied.

human CD123-Fc = target: T3, human CD123-Fc (human, UniProt P26951 19-305, limits assumed); assay: SPR, Biacore X100, human CD123-Fc on CM5 chip, 1:1 model; KD CD123 (first number of the cell)
T3 construct: Coupled to a CM5 sensor chip; also called soluble recombinant CD123; not shown: Fc part
T3 sequence (looked up): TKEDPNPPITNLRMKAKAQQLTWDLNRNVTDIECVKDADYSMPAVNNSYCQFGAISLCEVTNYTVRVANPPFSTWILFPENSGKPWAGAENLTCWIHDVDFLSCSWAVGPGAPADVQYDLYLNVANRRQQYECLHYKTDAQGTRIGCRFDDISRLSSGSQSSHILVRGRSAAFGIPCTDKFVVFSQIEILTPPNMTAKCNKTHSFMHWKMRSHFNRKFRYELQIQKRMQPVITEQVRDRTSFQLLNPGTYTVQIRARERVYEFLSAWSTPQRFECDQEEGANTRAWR
Experimental: Binding of different variants of the targeting module according to the invention was analyzed by SPR measurements using human CD123-Fc coupled to a CM5 sensor chip on a Biacore X100 device (FIG. 2). Targeting modules were purified monomer except for the targeting module according to SEQ ID No. 8. […] For data fitting and KD calculation a 1:1 binding model was applied.

EC50 [1]: 0.0071 nM | EC50 [2]: 0.026 nM | Kd [3]: 3.4 nM | Kd (human CD123-Fc): 5.2 nM
B1: targeting module according to SEQ ID No. 4 (bispecific antibody)
chain: GQVQLVQSGAEVKKPGASVKMSCKASGYTFTDYYMKWVKQAPGQGLEWIGDIIPSNGATFYNQKFQGRATLTVDTSTSTAYMELSSLRSEDTAVYYCTRSHLLRASWFAYWGQGTLVTVSSASGGGGSGGGGSGGGGSDIVMTQSPDSLAVSLGERATINCKSSQSLLNSGNQKNYLTWYLQKPGQPPKLLIYWASTRESGVPDRFSGSGSGTDFTLTISSVQAEDVAVYYCQNDYSYPYTFGGGTKLEIKAAARGDIVMTQSPDSLAVSLGERVTMNCKSSQSLLNSRTPKNYLAWYQQKPGQSPKLLIYWASTRKSGVPDRFSGSGSGTDFTLTISSVQAEDVAVYYCKQSYNLLTFGGGTKLEIKGGGGSGGGGSGASAAGGGGSGGGGSQVQLVESGAEVVKPGASVKLSCKASGYAFTHYYIYWIKQAPGQGLEWIGGVNPSNGGTHFNEKFKSRATLTVDTSISTAYMELSRLRSDDTAVYYCTRSEYDYGLGFAYWGQGTLVTVSSGGGGSHHHHHHHH
notes: also called huCD123_2 + rs5B9-VLVH
